From the supplement of paper PMC10126150
± gives the standard deviation of the averaged measurements.

Tested on: ATP
Assay: switch fluorescence ratio, 500 uM ATP over buffer (Cy3 cluster intensity, sum of 5 cycles each) (fold (ratio)); higher = stronger signal-on switching upon ATP binding; sequences stand for … in TCGTCGGCAGCGTCAGATGTGTATAAGAGACAGTTTTTTTTTTTTTTTTTTTTTTTTT…TC
Details: aptamer strand: ATP DNA aptamer (quencher-CACCTGGGGGAGTATTGCGGAGGAAGG + anchor), 100 nM annealed; ATP concentration: 500 uM
In short: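 Switching-strand clusters labelled with Cy3 on a modified Illumina MiSeq flow-cell were annealed to 100 nM quencher-labelled ATP aptamer, imaged in selection buffer, and re-imaged after 15 min with 500 uM ATP at 22 °C. This was done over five cycles with NaOH stripping and re-annealing in between. The fluorescence ratio is summed target-cycle over summed buffer-cycle Cy3 intensity per cluster, averaged per switch-domain sequence, excluding clusters outside 100-1000 RFU.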
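Note: ATP exposure 15 min at 22 °C before imaging.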

Q: How did the switch fluorescence ratio turn out when AAGCCAGGCC was run?
A: 1.03 ± 0.025

Q: How did the switch fluorescence ratio turn out when AAAACTGCGA was run?
A: 1.03 ± 0.067

Q: CGTGGGACAG was tested. Which switch fluorescence ratio did it give?
A: 0.976 ± 0.011

Q: ACATAGTGCT was tested. Which switch fluorescence ratio did it give?
A: 1.004 ± 0.0077

Q: TTGTGTAGCT was tested. Which switch fluorescence ratio did it give?
A: 1.02 ± 0.0057

Q: How did the switch fluorescence ratio turn out when TAGCGCCCCG was run?
A: 0.987 ± 0.016

Q: GGGGCAAGGA was tested. Which switch fluorescence ratio did it give?
A: 0.987 ± 0.023

Q: With TATATTAGAG as the sequence, how does the switch fluorescence ratio read?
A: 1.01 ± 0.0023

Q: How did the switch fluorescence ratio turn out when TACTAACATT was run?
A: 1.14 ± 0.019

Q: TGCGTTATAA was tested. Which switch fluorescence ratio did it give?
A: 1.02 ± 0.022

Q: With GGGGATCGGG as the sequence, how does the switch fluorescence ratio read?
A: 0.965 ± 0.022

Q: With GAGGTGAAGA as the sequence, how does the switch fluorescence ratio read?
A: 0.979 ± 0.046

Q: How did the switch fluorescence ratio turn out when TATGGAGGCT was run?
A: 1.07 ± 0.015

Q: For GGTTCTTCGG, which switch fluorescence ratio is on record?
A: 0.9938 ± 0.0066

Q: GCAAGCTGGG was tested. Which switch fluorescence ratio did it give?
A: 1.01 ± 0.014

Q: Which switch fluorescence ratio does the source give for TGTTACACCT here?
A: 1.23 ± 0.025

Q: ACGTTAAGAT was tested. Which switch fluorescence ratio did it give?
A: 1.29 ± 0.26

Q: How did the switch fluorescence ratio turn out when ATTGATGGCC was run?
A: 0.963 ± 0.032

Q: For GGCGCAATTG, which switch fluorescence ratio is on record?
A: 2.04 ± 0.23

Q: How did the switch fluorescence ratio turn out when CCGGCTGAGG was run?
A: 1.03 ± 0.017

Q: How did the switch fluorescence ratio turn out when GTTGCTATTT was run?
A: 1.0045 ± 0.00071

Q: With AGGGGCGGGA as the sequence, how does the switch fluorescence ratio read?
A: 0.962 ± 0.041

Q: For GGGGGTGGTC, which switch fluorescence ratio is on record?
A: 1.01 ± 0.04

Q: Which switch fluorescence ratio does the source give for TTTTCAATTG here?
A: 1.01 ± 0.027

Q: TGTTGAGGAA was tested. Which switch fluorescence ratio did it give?
A: 1.05 ± 0.053

Q: For GGTAAAAAAG, which switch fluorescence ratio is on record?
A: 1 ± 0.028

Q: How did the switch fluorescence ratio turn out when ACATCGTGTT was run?
A: 0.977 ± 0.033

Q: How did the switch fluorescence ratio turn out when TTGCGTTTTG was run?
A: 0.991 ± 0.057

Q: Which switch fluorescence ratio does the source give for AAAACTGAGC here?
A: 1.08 ± 0.031

Q: With TGCGTTGGGG as the sequence, how does the switch fluorescence ratio read?
A: 0.981 ± 0.019

Q: With TCAAGCCCAT as the sequence, how does the switch fluorescence ratio read?
A: 1 ± 0.045

Q: ACTAATATCG was tested. Which switch fluorescence ratio did it give?
A: 1.04 ± 0.036

Q: How did the switch fluorescence ratio turn out when CTCGCGTTAA was run?
A: 1.11 ± 0.13

Q: Which switch fluorescence ratio does the source give for GGGTTGAGGA here?
A: 1.01 ± 0.05

Q: For TGCAACCTCC, which switch fluorescence ratio is on record?
A: 2.29 ± 1.1

Q: How did the switch fluorescence ratio turn out when GTATTAATGT was run?
A: 1.01 ± 0.011

Q: For TCTAACCTGG, which switch fluorescence ratio is on record?
A: 1.006 ± 0.0042

Q: For GAGCGAGGAA, which switch fluorescence ratio is on record?
A: 0.98171 ± 0.00093

Q: With AGTTTCGGGT as the sequence, how does the switch fluorescence ratio read?
A: 0.9636 ± 0.0082

Q: How did the switch fluorescence ratio turn out when CGGAGGGTAC was run?
A: 1.61 ± 0.08

Q: TTTTTGGAGA was tested. Which switch fluorescence ratio did it give?
A: 0.994 ± 0.025

Q: How did the switch fluorescence ratio turn out when TAGATCAAG was run?
A: 1.04 ± 0.028

Q: For TTCCTTATTA, which switch fluorescence ratio is on record?
A: 1.02 ± 0.011

Q: ATGCATTAAG was tested. Which switch fluorescence ratio did it give?
A: 0.992 ± 0.051

Q: For ACGGGATGTG, which switch fluorescence ratio is on record?
A: 0.978 ± 0.016

Q: Which switch fluorescence ratio does the source give for AGGTTAACAG here?
A: 0.9909 ± 0.0073

Q: Which switch fluorescence ratio does the source give for AGTGCGGGTG here?
A: 1.13 ± 0.028

Q: With TCATTGGTAA as the sequence, how does the switch fluorescence ratio read?
A: 0.977 ± 0.047

Q: How did the switch fluorescence ratio turn out when GGGGGGCTAT was run?
A: 0.976 ± 0.02

Q: For GGCGGTACGG, which switch fluorescence ratio is on record?
A: 1.01 ± 0.0066

Q: For TGATTTATG, which switch fluorescence ratio is on record?
A: 1.01 ± 0.002

Q: How did the switch fluorescence ratio turn out when TGGTGGGTGC was run?
A: 1.04 ± 0.044

Q: With GAGAGTCCTT as the sequence, how does the switch fluorescence ratio read?
A: 0.997 ± 0.015

Q: How did the switch fluorescence ratio turn out when TTTGAATGCT was run?
A: 0.952 ± 0.046

Q: For GACGTAAATA, which switch fluorescence ratio is on record?
A: 1.75 ± 0.18

Q: TAGAGTTGTT was tested. Which switch fluorescence ratio did it give?
A: 0.984 ± 0.03

Q: With GAATCACAGC as the sequence, how does the switch fluorescence ratio read?
A: 1.02 ± 0.033

Q: Which switch fluorescence ratio does the source give for TAATTTTTTT here?
A: 1.01 ± 0.014

Q: CGATATCCAC was tested. Which switch fluorescence ratio did it give?
A: 1.07 ± 0.013

Q: With TGGTTAAAAA as the sequence, how does the switch fluorescence ratio read?
A: 0.98 ± 0.049

Q: Which switch fluorescence ratio does the source give for ATGATTGGCA here?
A: 0.99 ± 0.026

Q: For TCGGAGAAGG, which switch fluorescence ratio is on record?
A: 1.02 ± 0.064

Q: For ATGGAGGGGT, which switch fluorescence ratio is on record?
A: 1 ± 0.045

Q: TGGTAGCAGT was tested. Which switch fluorescence ratio did it give?
A: 0.989 ± 0.037

Q: With GTGATATGGG as the sequence, how does the switch fluorescence ratio read?
A: 1.02 ± 0.036

Q: For TTACAAGCGA, which switch fluorescence ratio is on record?
A: 1.03 ± 0.019

Q: TACCGGTGTC was tested. Which switch fluorescence ratio did it give?
A: 1.06 ± 0.047

Q: How did the switch fluorescence ratio turn out when ACTGTTGTGT was run?
A: 1.06 ± 0.1

Q: Which switch fluorescence ratio does the source give for GCCCCGGCTG here?
A: 1.03 ± 0.045

Q: For TATCGACGGC, which switch fluorescence ratio is on record?
A: 1.03 ± 0.05

Q: CTCGGGCACG was tested. Which switch fluorescence ratio did it give?
A: 0.989 ± 0.046

Q: Which switch fluorescence ratio does the source give for CTGGTGTCGA here?
A: 0.978 ± 0.013

Q: For TGGGGTTTGC, which switch fluorescence ratio is on record?
A: 0.991 ± 0.032

Q: For ACGGCTACGG, which switch fluorescence ratio is on record?
A: 1.02 ± 0.018

Q: Which switch fluorescence ratio does the source give for GTCGTATTAG here?
A: 0.995 ± 0.022

Q: ACGTCATAGT was tested. Which switch fluorescence ratio did it give?
A: 1.14 ± 0.047

Q: Which switch fluorescence ratio does the source give for GATTCGTGAC here?
A: 1.03 ± 0.052

Q: Which switch fluorescence ratio does the source give for ATGGAACGGA here?
A: 1.03 ± 0.027

Q: For GAAGATGAAA, which switch fluorescence ratio is on record?
A: 0.984 ± 0.017

Q: For TAATTCGTTA, which switch fluorescence ratio is on record?
A: 0.992 ± 0.037

Q: Which switch fluorescence ratio does the source give for GCTATATGTG here?
A: 0.98 ± 0.069

Q: With AGATAGAGCG as the sequence, how does the switch fluorescence ratio read?
A: 1.01 ± 0.024

Q: How did the switch fluorescence ratio turn out when GTGAAAGGGT was run?
A: 1.02 ± 0.015

Q: TCATAGTTGT was tested. Which switch fluorescence ratio did it give?
A: 1.01 ± 0.051

Q: With CACTTGGTTG as the sequence, how does the switch fluorescence ratio read?
A: 0.997 ± 0.051

Q: For GGATGGTAGT, which switch fluorescence ratio is on record?
A: 1.01 ± 0.071

Q: With TGACTTGAGC as the sequence, how does the switch fluorescence ratio read?
A: 1.01 ± 0.058

Q: How did the switch fluorescence ratio turn out when TGCATATATA was run?
A: 1.29 ± 0.36

Q: Which switch fluorescence ratio does the source give for TGATTCGTTT here?
A: 0.985 ± 0.094

Q: With TAGGTAAGAT as the sequence, how does the switch fluorescence ratio read?
A: 0.993 ± 0.015

Q: With TTAAGAACCT as the sequence, how does the switch fluorescence ratio read?
A: 1.31 ± 0.13

Q: Which switch fluorescence ratio does the source give for CAGCTGCATT here?
A: 1.305 ± 0.013

Q: TTAGATTTAA was tested. Which switch fluorescence ratio did it give?
A: 0.998 ± 0.013

Q: How did the switch fluorescence ratio turn out when TTTGTATTGC was run?
A: 1.01 ± 0.025

Q: ATAGATGCTT was tested. Which switch fluorescence ratio did it give?
A: 1.002 ± 0.003

Q: Which switch fluorescence ratio does the source give for TGGCGGTTTT here?
A: 1.005 ± 0.0077

Q: CTCGATGTGG was tested. Which switch fluorescence ratio did it give?
A: 0.985 ± 0.044

Q: How did the switch fluorescence ratio turn out when TTTTATCCCC was run?
A: 1.08 ± 0.1

Q: How did the switch fluorescence ratio turn out when GTCGGCGTAA was run?
A: 0.9982 ± 0.0045

Q: For GGGGGATCAT, which switch fluorescence ratio is on record?
A: 0.9921 ± 0.0016
